# From patent publication US20240279845
# Tested on: disulfide cyclized peptide Mpa-Tyr-II-Pro-Mea
substance,measurement,value
thrombin,thrombin activity in screen at compound concentration of around 10 µM (fluorogenic substrate),reduced the thrombin activity 52%
